# In article PMC5923425, “Structural analysis of human ARS2 as a platform for co-transcriptional RNA sorting” (Nature Communications, 2018):
# B1: ARS2^147–270+408–763ΔloopB (domain or fragment, human)
# chain 1: PVMKTFKEFLLSLDDSVDETEAVKRYNDYKLDFRRQQMQDFFLAHKDEEWFRSKYHPDEVGKRRQEARGALQNRLRVFLSLMETGWFDNLLLDIDKADAIVKMLDAAVIKMEGGTENDLRILEQ
# chain 2: GLECKPRPLHKTCSLFMRNIAPNISRAEIISLCKRYPGFMRVALSEPQPERRFFRRGWVTFDRSVNIKEICWNLQNIRLRECELSPGVNRDLTRRVRNINGITQHKQIVRNDIKLAAKLIHTLDDRTQLWASEPGTPPLPTSLPSQNPILKNITDYLIEEGSGSGSERDEKLIKVLDKLLLYLRIVHSLDYYNTCEYPNEDEMPNRCGIIHVRGPMPPNRISHGEVLEWQKTFEEKLTPLLSVRESLSEEEAQKMGRKDPEQEVEKFVTSNTQELGKDKWLCPLSGKKFKGPEFVRKHIFNKHAEKIEEVKKEVAFFNNFLTDAKRPALPE
# notes: human ARS2 (SRRT) isoform-e, residues 147-270; human ARS2 (SRRT) isoform-e, from 408 to E567, before the deleted loop B; linker that replaces loop B (568-598); human ARS2 (SRRT) isoform-e, from E599 to 763, after the deleted loop B; the crystallisation methods print ∆566–598GSGSGS; also called ARS2^147–270+408–763Δ568–598 (Δloop B); Human ARS2 147-270+408-763 Δloop B: Δ568–598 E567–GSGSGS–E599; …
# B2: ARS2^171–270+408–763 (domain or fragment, human)
# chain 1: RYNDYKLDFRRQQMQDFFLAHKDEEWFRSKYHPDEVGKRRQEARGALQNRLRVFLSLMETGWFDNLLLDIDKADAIVKMLDAAVIKMEGGTENDLRILEQ
# chain 2: GLECKPRPLHKTCSLFMRNIAPNISRAEIISLCKRYPGFMRVALSEPQPERRFFRRGWVTFDRSVNIKEICWNLQNIRLRECELSPGVNRDLTRRVRNINGITQHKQIVRNDIKLAAKLIHTLDDRTQLWASEPGTPPLPTSLPSQNPILKNITDYLIEEVSAEEEELLGSSGGAPPEEPPKEGNPAEINVERDEKLIKVLDKLLLYLRIVHSLDYYNTCEYPNEDEMPNRCGIIHVRGPMPPNRISHGEVLEWQKTFEEKLTPLLSVRESLSEEEAQKMGRKDPEQEVEKFVTSNTQELGKDKWLCPLSGKKFKGPEFVRKHIFNKHAEKIEEVKKEVAFFNNFLTDAKRPALPE
# notes: human ARS2 (SRRT) isoform-e, residues 171-270, cloned into pETM11; human ARS2 (SRRT) isoform-e, residues 408-763, cloned for co-expression into pDUET and pET15b; Two co-expressed fragments of one protein that fold into one core; also called crystallised core; source: E. coli Rosetta 2, two fragments co-expressed, purified; not shown: His6, N-terminal, cleaved
# B3: FARB (FLASH–ARS2-binding region) peptide of FLASH, residues 931–943 (peptide)
# peptide: DELEEGEIRSDSE
# notes: FLASH (FLICE-associated huge protein), residues 931-943; also called FLASH^931–943; source: synthetic peptide, bought: GeneScript
# B4: FLASH^921–946 peptide (peptide, UniProt Q9UKL3 921-946, looked up)
# peptide: EADTCKNSPLDELEEGEIRSDSETSK
# notes: FLASH (FLICE-associated huge protein), residues 921-946, holds FARB (931-943); source: synthetic peptide, bought: GeneScript
# B5: NCBP3^1–282 (domain or fragment, human, UniProt Q53F19-1 1-282, looked up)
# chain: MAAVRGLRVSVKAEAPAGPALGLPSPEAESGVDRGEPEPMEVEEGELEIVPVRRSLKELIPDTSRRYENKAGSFITGIDVTSKEAIEKKEQRAKRFHFRSEVNLAQRNVALDRDMMKKAIPKVRLETIYICGVDEMSTQDVFSYFKEYPPAHIEWLDDTSCNVVWLDEMTATRALINMSSLPAQDKIRSRDASEDKSAEKRKKDKQEDSSDDDEAEEGEVEDENSSDVELDTLSQVEEESLLRNDLRPANKLAKGNRLFMRFATKDDKKELGAARRSQYYMK
# notes: cloned into pETM11; also called N-terminal region of NCBP3; source: E. coli Rosetta 2, purified; not shown: His6, N-terminal, cleaved
# B6: full-length NCBP3 (residues 1–620) (natural protein, human, UniProt Q53F19-1 1-620, looked up)
# chain: MAAVRGLRVSVKAEAPAGPALGLPSPEAESGVDRGEPEPMEVEEGELEIVPVRRSLKELIPDTSRRYENKAGSFITGIDVTSKEAIEKKEQRAKRFHFRSEVNLAQRNVALDRDMMKKAIPKVRLETIYICGVDEMSTQDVFSYFKEYPPAHIEWLDDTSCNVVWLDEMTATRALINMSSLPAQDKIRSRDASEDKSAEKRKKDKQEDSSDDDEAEEGEVEDENSSDVELDTLSQVEEESLLRNDLRPANKLAKGNRLFMRFATKDDKKELGAARRSQYYMKYGNPNYGGMKGILSNSWKRRYHSRRIQRDVIKKRALIGDDVGLTSYKHRHSGLVNVPEEPIEEEEEEEEEEEEEEEEDQDMDADDRVVVEYHEELPALKQPRERSASRRSSASSSDSDEMDYDLELKMISTPSPKKSMKMTMYADEVESQLKNIRNSMRADSVSSSNIKNRIGNKLPPEKFADVRHLLDEKRQHSRPRPPVSSTKSDIRQRLGKRPHSPEKAFSSNPVVRREPSSDVHSRLGVPRQDSKGLYADTREKKSGNLWTRLGSAPKTKEKNTKKVDHRAPGAEEDDSELQRAWGALIKEKEQSRQKKSRLDNLPSLQIEVSRESSSGSEAES
# notes: human NCBP3, full length, residues 1-620, cloned into pFASTBac HTb; also called NCBP3^1–620; source: High Five insect cells, purified; not shown: His6, N-terminal, cleaved
# Tests used:
# [1] = target: PHAX (endogenous) (UniProt Q9H814); assay: EGFP pull down, LC–MS/MS (AP–MS, TMT labelled); settings: HEK 293T/17 cells; three independent affinity purifications per bait, except ARS2 wt in b (one pull down); read off a plot
# PHAX (endogenous), sequence (Q9H814 whole entry): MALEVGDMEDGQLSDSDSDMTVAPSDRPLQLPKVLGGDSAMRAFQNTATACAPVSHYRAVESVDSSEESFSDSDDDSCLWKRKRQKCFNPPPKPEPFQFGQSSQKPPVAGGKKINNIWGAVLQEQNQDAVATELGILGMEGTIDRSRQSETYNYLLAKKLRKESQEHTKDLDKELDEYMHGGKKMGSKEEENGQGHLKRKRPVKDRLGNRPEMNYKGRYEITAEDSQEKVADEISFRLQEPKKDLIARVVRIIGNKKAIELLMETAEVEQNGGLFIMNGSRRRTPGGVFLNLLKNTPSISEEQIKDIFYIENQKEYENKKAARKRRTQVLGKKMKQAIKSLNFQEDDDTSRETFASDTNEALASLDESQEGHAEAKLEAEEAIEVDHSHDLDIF
# [2] = target: CBP80 (NCBP1) (endogenous) (UniProt Q09161); assay: EGFP pull down, LC–MS/MS (AP–MS, TMT labelled); settings: HEK 293T/17 cells; three independent affinity purifications per bait, except ARS2 wt in b (one pull down); read off a plot
# CBP80 (NCBP1) (endogenous), sequence (Q09161 whole entry): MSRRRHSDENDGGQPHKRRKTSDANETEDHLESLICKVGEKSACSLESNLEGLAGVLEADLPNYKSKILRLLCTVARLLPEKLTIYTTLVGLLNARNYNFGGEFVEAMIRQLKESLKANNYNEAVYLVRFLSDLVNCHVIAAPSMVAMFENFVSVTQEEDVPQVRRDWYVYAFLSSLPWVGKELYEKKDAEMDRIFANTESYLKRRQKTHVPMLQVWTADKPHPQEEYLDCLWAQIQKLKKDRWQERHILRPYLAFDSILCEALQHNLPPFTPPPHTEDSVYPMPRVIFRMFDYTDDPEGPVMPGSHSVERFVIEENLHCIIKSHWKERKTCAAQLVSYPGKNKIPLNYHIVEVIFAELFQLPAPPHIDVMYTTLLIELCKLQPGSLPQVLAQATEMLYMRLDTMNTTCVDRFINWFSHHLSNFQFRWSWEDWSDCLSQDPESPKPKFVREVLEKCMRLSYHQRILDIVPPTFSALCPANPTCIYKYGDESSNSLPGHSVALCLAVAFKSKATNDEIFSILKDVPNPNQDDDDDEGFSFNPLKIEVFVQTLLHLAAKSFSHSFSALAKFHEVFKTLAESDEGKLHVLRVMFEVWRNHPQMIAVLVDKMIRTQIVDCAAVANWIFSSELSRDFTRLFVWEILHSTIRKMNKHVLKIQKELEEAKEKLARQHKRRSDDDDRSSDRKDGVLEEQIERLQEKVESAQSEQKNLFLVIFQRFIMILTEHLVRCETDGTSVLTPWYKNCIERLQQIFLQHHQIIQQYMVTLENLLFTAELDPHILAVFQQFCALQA
# [3] = target: CBP20 (NCBP2) (endogenous) (UniProt P52298); assay: EGFP pull down, LC–MS/MS (AP–MS, TMT labelled); settings: HEK 293T/17 cells; three independent affinity purifications per bait, except ARS2 wt in b (one pull down); read off a plot
# CBP20 (NCBP2) (endogenous), sequence (P52298 whole entry): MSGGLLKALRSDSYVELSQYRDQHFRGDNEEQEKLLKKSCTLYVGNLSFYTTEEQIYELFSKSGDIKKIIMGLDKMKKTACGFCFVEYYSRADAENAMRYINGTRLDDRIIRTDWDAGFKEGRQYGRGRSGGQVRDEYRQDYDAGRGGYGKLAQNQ
# [4] = target: B6; assay: pull-down; purified recombinant NCBP3 constructs immobilised on m7GTP sepharose, incubated with CBP80 and/or wild type or mutant ARS2; eluted fractions on Coomassie-stained SDS-PAGE; settings: both partners purified
# [5] = target: T1, ARS2^147–871 (human, UniProt Q9BXP5-4 147-871); assay: ITC; MicroCal ITC200, 25 °C, ARS2 constructs with FLASH peptides; high salt (HS): buffer containing 250 mM NaCl; single-site fit; which partner was injected is not told; settings: both partners purified
# T1 construct: human ARS2 (SRRT) isoform-e, 871 residues, residues 147-871, cloned into pETM11; also called hARS2; SRRT; source: E. coli Rosetta 2, purified (Ni-Sepharose, TEV cleavage, HiTrap Q, heparin if necessary, SEC); not shown: His6, N-terminal, cleaved
# T1 sequence (looked up): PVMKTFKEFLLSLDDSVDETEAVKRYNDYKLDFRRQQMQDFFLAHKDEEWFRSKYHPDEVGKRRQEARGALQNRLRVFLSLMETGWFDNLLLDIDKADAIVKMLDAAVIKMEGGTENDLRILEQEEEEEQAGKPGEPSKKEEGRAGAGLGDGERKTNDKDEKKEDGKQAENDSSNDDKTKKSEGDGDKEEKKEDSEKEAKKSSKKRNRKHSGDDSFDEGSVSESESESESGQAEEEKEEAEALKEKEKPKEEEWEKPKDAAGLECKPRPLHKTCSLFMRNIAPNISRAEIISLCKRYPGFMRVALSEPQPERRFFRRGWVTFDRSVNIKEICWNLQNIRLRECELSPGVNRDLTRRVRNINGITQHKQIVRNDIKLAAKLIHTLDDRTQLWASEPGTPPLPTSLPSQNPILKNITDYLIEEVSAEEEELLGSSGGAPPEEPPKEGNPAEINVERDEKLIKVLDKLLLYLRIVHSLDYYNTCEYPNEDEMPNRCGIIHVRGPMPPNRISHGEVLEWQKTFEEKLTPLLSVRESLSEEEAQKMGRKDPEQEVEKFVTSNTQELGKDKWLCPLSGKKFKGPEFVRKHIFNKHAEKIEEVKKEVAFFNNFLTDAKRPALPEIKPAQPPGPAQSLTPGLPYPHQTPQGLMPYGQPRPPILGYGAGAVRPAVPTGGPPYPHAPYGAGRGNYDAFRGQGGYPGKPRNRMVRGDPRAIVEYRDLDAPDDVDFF
# [6] = target: B2; assay: as above; settings: both partners purified
# [7] = target: T2, ARS2^147–270+494–763 (human, UniProt Q9BXP5-4 147-270; Q9BXP5-4 494-763); assay: ITC; MicroCal ITC200, 25 °C, ARS2 construct with FARB; not marked high salt: 20 mM HEPES, 120 mM, 2 mM TCEP pH 7.8; single-site fit; settings: both partners purified
# T2 construct: human ARS2 (SRRT) isoform-e, residues 147-270, cloned into pETM11; human ARS2 (SRRT) isoform-e, residues 494-763 (lacks the RRM domain), cloned for co-expression into pDUET and pET15b; Lacks the unstructured regions and the RRM domain; source: E. coli Rosetta 2, two fragments co-expressed, purified; not shown: His6, N-terminal, cleaved
# T2 sequence (looked up) 1: B1 chain 1
# T2 sequence (looked up) 2: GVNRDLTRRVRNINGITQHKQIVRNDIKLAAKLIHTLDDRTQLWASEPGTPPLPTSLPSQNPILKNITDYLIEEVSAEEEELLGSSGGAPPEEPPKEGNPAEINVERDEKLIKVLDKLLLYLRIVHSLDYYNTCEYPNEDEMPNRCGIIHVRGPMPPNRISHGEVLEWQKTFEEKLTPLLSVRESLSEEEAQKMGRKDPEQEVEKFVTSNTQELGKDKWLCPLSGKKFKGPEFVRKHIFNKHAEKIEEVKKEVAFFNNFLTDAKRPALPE
# [8] = target: T1, ARS2^147–871; assay: ITC; MicroCal ITC200, 25 °C, ARS2 constructs with NCBP3 1–282; buffer containing 250 mM NaCl; injections of 2.5 µL; settings: both partners purified
# [9] = target: T3, GST-tagged ARS2^147–871 (human, UniProt Q9BXP5-4 147-871); assay: pull-down; GST-tagged ARS2 147–871 on glutathione sepharose, NCBP3 constructs added, in the absence of the cap analogue; settings: both partners purified
# T3 construct: human ARS2 (SRRT) isoform-e, residues 147-871; The cloning of the GST fusion is not described; also called GST-ARS2; source: E. coli Rosetta 2 (said of all constructs but full-length NCBP3); held on glutathione sepharose
# T3 sequence (looked up): T1 sequence (looked up)
# [10] = target: T1, ARS2^147–871; assay: SEC; purified proteins mixed, Superdex 200, 120 mM NaCl, 1 mM TCEP, 20 mM HEPES pH 7.8; in the absence of m7GTP; fractions on SDS-PAGE; settings: both partners purified
molecule,measurement,setting,value
EGFP–ARS2 wt (from UniProt Q9BXP5-4) R854A; R859A; F871A,other: log2 (fold change),[1],-2.6
same,other: log2 (fold change),[2],-4
same,other: log2 (fold change),[3],-3.9
B1,binding result,[4],binds
B2,binding result,[4],binds
B3,Kd,[5],5.1 µM
same,Kd,[6],3.8 µM
same,Kd,[7],500 nM
B4,Kd,[5],5.5 µM
B5,binding result,[8],binds
same,binding result,[9],binds
B6,binding result,[10],binds
same,binding result,[9],binds
